Literature values in patent publication US20200069786A1, “COMPOSITION AND PROCESS FOR PREPARING VACCINE” (TREOS BIO ZRT., priority 2018, published 2020).
Read-outs that look alike come from different tables or passages of the source.

Test system: TSA
[1] = TSA expression rate in GASTRIC cancer
[2] = TSA expression rate in HEAD and NECK
[3] = TSA expression rate in LEUKEMIAS
[4] = TSA expression rate in LUNG cancer
[5] = TSA expression rate in MELANOMA
[6] = TSA expression rate in Esophageal
[7] = TSA expression rate in PROSTATE cancer
[8] = TSA expression rate in Cervical cancer

Row | Molecule | TSA Expression Rate (ER) (BRAIN) | TSA Expression Rate (ER) (BREAST) | TSA Expression Rate (ER) (HCC) | TSA Expression Rate (ER) (OVARIAN) | TSA Expression Rate (ER) (THYROID) | Expression Rate (ER) % (TSA expression rate in CRC) | Expression Rate (ER) % [1] | Expression Rate (ER) % [2] | Expression Rate (ER) % (TSA expression rate in Kidney) | Expression Rate (ER) % [3] | Expression Rate (ER) % [4] | Expression Rate (ER) % [5] | TSA Expression Rate (ER) (LUNG) | TSA Expression Rate (ER) (PANCREATIC) | Expression Rate (ER) % (TSA expression rate in PEDIATRIC) | Expression Rate (ER) % [6] | Expression Rate (ER) % [7] | Expression Rate (ER) % [8]
1 | SSX-5 (protein, UniProt O60225 1-188, looked up) Protein SSX5: MNGDDAFVRRPRVGSQIPEKMQKAFDDIAKYFSEKEWEKMKASEKIIYVYMKRKYEAMTKLGFKATLPPFMRNKRVADFQGNDFDNDPNRGNQVEHPQMTFGRLQGIFPKITPEKPAEEGNDSKGVPEASGPQNNGKQLRPSGKLNTSEKVNKTSGPKRGKHAWTHRVRERKQLVIYEEISDPQEDDE | 0% | 0% | 37% | 0% | 0% | 2% | 0% | 7% | 0% | 24% | 4% | 5% | – | – | – | – | – | –
2 | CCDC110 (protein, UniProt Q8TBZ0 1-833, looked up) Coiled-coil domain-containing …: MSPEKQHREEDEVDSVLLSASKILNSSEGVKESGCSDTEYGCIAESENQIQPQSALKVLQQQLESFQALRMQTLQNVSMVQSEISEILNKSIIEVENPQFSSEKNLVFGTRIEKDLPTENQEENLSMEKSHHFEDSKTLHSVEEKLSGDSVNSLPQSVNVPSQIHSEDTLTLRTSTDNLSSNIIIHPSENSDILKNYNNFYRFLPTAPPNVMSQADTVILDKSKITVPFLKHGFCENLDDICHSIKQMKEELQKSHDGEVALTNELQTLQTDPDVHRNGKYDMSPIHQDKMNFIKEENLDGNLNEDIKSKRISELEALVKKLLPFRETVSKFHVHFCRKCKKLSKSEMHRGKKNEKNNKEIPITGKNITDLKFHSRVPRYTLSFLDQTKHEMKDKERQPFLVKQGSIISENEKTSKVNSVTEQCVAKIQYLQNYLKESVQIQKKVMELESENLNLKSKMKPLIFTTQSLIQKVETYEKQLKNLVEEKSTIQSKLSKTEEYSKECLKEFKKIISKYNVLQGQNKTLEEKNIQLSLEKQQMMEALDQLKSKEHKTQSDMAIVNNENNRMSIEMEAMKTNILLIQDEKEMLEKKTHQLLKEKSSLGNELKESQLEIIQLKEKERLAKTEQETLLQIIETVKDEKLNLETTLQESTAARQIMEREIENIQTYQSTAEENFLQEIKNAKSEASIYKNSLSEIGKECEMLSKMVMETKTDNQILKEELKKHSQENIKFENSISRLTEDKILLENYVRSIENERDTLEFEMRHLQREYLSLSDKICNQHNDPSKTTYISRREKFHFDNYTHEDTSSPQSRPLASDLKGYFKVKDRTLKHH | – | – | 50% | – | – | 50% | 100% | 67% | – | – | – | 60% | 50% | 100% | – | – | – | –
3 | XAGE-1 (protein, UniProt Q9HD64 1-81, looked up) X antigen family member 1: MESPKKKNQQLKVGILHLGSRQKKIRIQLRSQCATWKVICKSCISQTPGINLDLGSGVKVKIIPKEEHCKMPEAGEEQPQV | 18% | 58% | 33% | 5% | – | – | – | 40% | – | – | – | 7% | 25% | – | 53% | – | – | –
4 | CCDC62 (protein, UniProt Q6P9F0 1-684, looked up) Coiled-coil domain-containing …: MNPPAAFLAGRQNIGSEVEISTIEKQRKELQLLIGELKDRDKELNDMVAVHQQQLLSWEEDRQKVLTLEERCSKLEGELHKRTEIIRSLTKKVKALESNQMECQTALQKTQLQLQEMAQKATHSSLLSEDLEARNETLSNTLVELSAQVGQLQAREQALTTMIKLKDKDIIEAVNHIADCSGKFKMLEHALRDAKMAETCIVKEKQDYKQKLKALKIEVNKLKEDLNEKTTENNEQREEIIRLKQEKSCLHDELLFTVEREKRKDELLNIAKSKQERTNSELHNLRQIYVKQQSDLQFLNFNVENSQELIQMYDSKMEESKALDSSRDMCLSDLENNHPKVDIKREKNQKSLFKDQKFEAMLVQQNRSDKSSCDECKEKKQQIDTVFGEKSVITLSSIFTKDLVEKHNLPWSLGGKTQIEPENKITLCKIHTKSPKCHGTGVQNEGKQPSETPTLSDEKQWHDVSVYLGLTNCPSSKHPEKLDVECQDQMERSEISCCQKNEACLGESGMCDSKCCHPSNFIIEAPGHMSDVEWMSIFKPSKMQRIVRLKSGCTCSESICGTQHDSPASELIAIQDSHSLGSSKSALREDETESSSNKKNSPTSLLIYKDAPAFNEKASIVLPSQDDFSPTSKLQRLLAESRQMVTDLELSTLLPISHENLTGSATNKSEVPEESAQKNTFVSY | – | – | 0% | 0% | – | 13% | 7% | 12% | 25% | – | – | – | – | – | – | 21% | 22% | –
5 | ADAM2 (protein, UniProt Q99965 175-735, looked up) Disintegrin and …: DFAKYIEMHVIVEKQLYNHMGSDTTVVAQKVFQLIGLTNAIFVSFNITIILSSLELWIDENKIATTGEANELLHTFLRWKTSYLVLRPHDVAFLLVYREKSNYVGATFQGKMCDANYAGGVVLHPRTISLESLAVILAQLLSLSMGITYDDINKCQCSGAVCIMNPEAIHFSGVKIFSNCSFEDFAHFISKQKSQCLHNQPRLDPFFKQQAVCGNAKLEAGEECDCGTEQDCALIGETCCDIATCRFKAGSNCAEGPCCENCLFMSKERMCRPSFEECDLPEYCNGSSASCPENHYVQTGHPCGLNQWICIDGVCMSGDKQCTDTFGKEVEFGPSECYSHLNSKTDVSGNCGISDSGYTQCEADNLQCGKLICKYVGKFLLQIPRATIIYANISGHLCIAVEFASDHADSQKMWIKDGTSCGSNKVCRNQRCVSSSYLGYDCTTDKCNDRGVCNNKKHCHCSASYLPPDCSVQSDLWPGGSIDSGNFPPVAIPARLPERRYIENIYHSKPMRWPFFLFIPFFIIFCVLIAIMVKVNFQRKKWRTEDYSSDEQPESESEPKG | – | 0% | – | 0% | – | 0% | – | – | 9% | 6% | 1% | 3% | – | – | – | – | 25% | 0%
6 | SSX-3 (protein, UniProt Q99909 1-188, looked up) Protein SSX3: MNGDDTFARRPTVGAQIPEKIQKAFDDIAKYFSKEEWEKMKVSEKIVYVYMKRKYEAMTKLGFKAILPSFMRNKRVTDFQGNDFDNDPNRGNQVQRPQMTFGRLQGIFPKIMPKKPAEEGNVSKEVPEASGPQNDGKQLCPPGKPTTSEKINMISGPKRGEHAWTHRLRERKQLVIYEEISDPEEDDE | 0% | 0% | – | 0% | 0% | 0% | – | – | 0% | 4% | – | – | – | 0% | – | – | – | –
7 | CTCFL (protein, UniProt Q8NI51 1-663, looked up) Transcriptional repressor …: MAATEISVLSEQFTKIKELELMPEKGLKEEEKDGVCREKDHRSPSELEAERTSGAFQDSVLEEEVELVLAPSEESEKYILTLQTVHFTSEAVELQDMSLLSIQQQEGVQVVVQQPGPGLLWLEEGPRQSLQQCVAISIQQELYSPQEMEVLQFHALEENVMVASEDSKLAVSLAETTGLIKLEEEQEKNQLLAERTKEQLFFVETMSGDERSDEIVLTVSNSNVEEQEDQPTAGQADAEKAKSTKNQRKTKGAKGTFHCDVCMFTSSRMSSFNRHMKTHTSEKPHLCHLCLKTFRTVTLLRNHVNTHTGTRPYKCNDCNMAFVTSGELVRHRRYKHTHEKPFKCSMCKYASVEASKLKRHVRSHTGERPFQCCQCSYASRDTYKLKRHMRTHSGEKPYECHICHTRFTQSGTMKIHILQKHGENVPKYQCPHCATIIARKSDLRVHMRNLHAYSAAELKCRYCSAVFHERYALIQHQKTHKNEKRFKCKHCSYACKQERHMTAHIRTHTGEKPFTCLSCNKCFRQKQLLNAHFRKYHDANFIPTVYKCSKCGKGFSRWINLHRHSEKCGSGEAKSAASGKGRRTRKRKQTILKEATKGQKEAAKGWKEAANGDEAAAEEASTTKGEQFPGEMFPVACRETTARVKEEVDEGVTCEMLLNTMDK | 9% | 74% | 55% | 82% | – | 80% | – | – | – | – | – | 27% | 36% | 29% | – | 56% | 98% | 32%
8 | SPO11 (protein, UniProt Q9Y5K1 1-396, looked up) Meiotic recombination protein …: MAFAPMGPEASFFDVLDRHRESLLAALRRGGREPPTGGSRLASSSEVLASIENIIQDIITSLARNEAPAFTIDNRSSWENIKFEDSVGLQMVSHCTTRKIKSDSPKSAQKFSLILKILSMIYKLVQSNTYATKRDIYYTDSQLFGNQTVVDNIINDISCMLKVSRRSLHILSTSKGLIAGNLRYIEEDGTKVNCTCGATAVAVPSNIQGIRNLVTDAKFVLIVEKDATFQRLLDDNFCNKLSPCIMITGKGVPDLNTRLLVKKLWDTFHVPVFTLVDADPHGIEIMCIYKYGSMSMSFEAHHLTVPAIRWLGLLPSDLKRLNVPKDSLIPLTKRDQMKLDSILRRPYVTCQPFWRKEMEIMADSKMKAEIQALTFLSSDYLSRVYLPNKLKFGGWI | 12% | 0% | – | 0% | 0% | 0% | – | 0% | 0% | – | 0% | 6% | – | – | – | – | 0% | 33%
